Drawing on PMC4267655, “Brr2p carboxy-terminal Sec63 domain modulates Prp16 splicing RNA helicase” (Nucleic Acids Research, 2014), this text covers screen value for 11 variants.

First the molecules themselves.
B1: Prp16p (wild type), LexA-bait fusion [budding yeast] / Brr2 H2-Sec63-2p (wild type), Gal4AD-prey fusion [budding yeast] (parent complex)
chain 1: MGHSGREERIKDIFKELTSKELTPGLLLTLQKLAQKPNTNLEQFIASCKALTKLSSNNPIIFNELLELLKNKSEEDSTGPKKIAPSINKRKKFKIQLDLDDNEDELDSPVQKKPAPTRTLFKRIDKLKAKQLRQYSPTVKDPSPNSEQQTQNGHAETKDYEPTRSEVVEEDREWYDNDDDYGNLVPEPLSELPEEAKLLPVIRNIDNDDALRNTVQLYPIPLKQRMEWIPPFLSKFALENKVPTSIIIGSISETSSQVSALSMVNPFRNPDSEFSANAKRGSKLVALRRINMEHIQQSRDNTTVLNTAMGEVLGLENNNKAKDKSNQKICDDTALFTPSKDDIKHTKEQLPVFRCRSQLLSLIRENQVVVIIGETGSGKTTQLAQYLYEEGYANDRGKSIVVTQPRRVAAISVAKRVAMEMQVPLGKEVGYSIRFEDVTDSECTKLKFVTDGILLRETLLDDTLDKYSCVIIDEAHERSLNTDILLGFFKILLARRRDLKLIITSATMNAKKFSAFFGNAPQFTIPGRTFPVQTIYTSNPVQDYVEAAVSQAVKIHLANDCSSGDILIFMTGQEDIETTFDTLQEKFLQVYSKKFGTANFEEINDIEILPIYSALPADLQFKIFQDLHGTKRKIIIATNIAETSLTIKGIRYVIDCGYSKLKVYNPKIGLDSLVITPISKANADQRSGRAGRTAPGTAYRLYTEDTFKEDMYLQTIPEIQRTNLSNTLLLLKSLDVTDELSKFPFIDKPPLQTFLSSLYELWFIGAIDTSGQLTPLGLQMAKFPLQPSLSKILLIAVRNGCSDEMLTIVSMLSVPQVFYRPKERQKEADIARNKFFIAKSDHLTLLNVFEQWRANNFSSHWCNKHFVQYKSLVRARDIRDQLLTILKSQKIPVISSGKDWDIIKKCICSGFAHQAAKITGLRNYVHLKTGVSVQLHPTSALHGLGDLPPYVVYHELLMTSKEYICCVTSVDPFWLMEYGGLLYDIKRIKNDQEATTTGLFGEHYEHTLDKVEDDIDINIRRCKDMRDSVIQELKMTDNSNKEDKKQKTKKQNILNGKENSMKPFKRRKPFF
chain 2: MTEHETKDKAKKIREIYRYDEMSNKVLKVDKRFMNTSQNPQRDAEISQPKSMSGRISAKDMGQGLCNNINKGLKENDVAVEKTGKSASLKKIQQHNTILNSSSDFRLHYYPKDPSNVETYEQILQWVTEVLGNDIPHDLIIGTADIFIRQLKENEENEDGNIEERKEKIQHELGINIDSLKFNELVKLMKNITDYETHPDNSNKQAVAILADDEKSDEEEVTEMSNNANVLGGEINDNEDDDEEYDYNDVEVNSKKKNKRALPNIENDIIKLSDSKTSNIESVPIYSIDEFFLQRKLRSELGYKDTSVIQDLSEKILNDIETLEHNPVALEQKLVDLLKFENISLAEFILKNRSTIFWGIRLAKSTENEIPNLIEKMVAKGLNDLVEQYKFRETTHSKRELDSGDDQPQSSEAKRTKFSNPAIPPVIDLEKIKFDESSKLMTVTKVSLPEGSFKRVKPQYDEIHIPAPSKPVIDYELKEITSLPDWCQEAFPSSETTSLNPIQSKVFHAAFEGDSNMLICAPTGSGKTNIALLTVLKALSHHYNPKTKKLNLSAFKIVYIAPLKALVQEQVREFQRRLAFLGIKVAELTGDSRLSRKQIDETQVLVSTPEKWDITTRNSNNLAIVELVRLLIIDEIHLLHDDRGPVLESIVARTFWASKYGQEYPRIIGLSATLPNYEDVGRFLRVPKEGLFYFDSSFRPCPLSQQFCGIKERNSLKKLKAMNDACYEKVLESINEGNQIIVFVHSRKETSRTATWLKNKFAEENITHKLTKNDAGSKQILKTEAANVLDPSLRKLIESGIGTHHAGLTRSDRSLSEDLFADGLLQVLVCTATLAWGVNLPAHTVIIKGTDVYSPEKGSWEQLSPQDVLQMLGRAGRPRYDTFGEGIIITDQSNVQYYLSVLNQQLPIESQFVSKLVDNLNAEVVAGNIKCRNDAVNWLAYTYLYVRMLASPMLYKVPDISSDGQLKKFRESLVHSALCILKEQELVLYDAENDVIEATDLGNIASSFYINHASMDVYNRELDEHTTQIDLFRIFSMSEEFKYVSVRYEEKRELKQLLEKAPIPIREDIDDPLAKVNVLLQSYFSQLKFEGFALNSDIVFIHQNAGRLLRAMFEICLKRGWGHPTRMLLNLCKSATTKMWPTNCPLRQFKTCPVEVIKRLEASTVPWGDYLQLETPAEVGRAIRSEKYGKQVYDLLKRFPKMSVTCNAQPITRSVMRFNIEIIADWIWDMNVHGSLEPFLLMLEDTDGDSILYYDVLFITPDIVGHEFTLSFTYELKQHNQNNLPPNFFLTLISENWWHSEFEIPVSFNGFKLPKKFPPPTPLLENISISTSELGNDDFSEVFEFKTFNKIQSQVFESLYNSNDSVFVGSGKGTGKTAMAELALLNHWRQNKGRAVYINPSGEKIDFLLSDWNKRFSHLAGGKIINKLGNDPSLNLKLLAKSHVLLATPVQFELLSRRWRQRKNIQSLELMIYDDAHEISQGVYGAVYETLISRMIFIATQLEKKIRFVCLSNCLANARDFGEWAGMTKSNIYNFSPSERIEPLEINIQSFKDVEHISFNFSMLQMAFEASAAAAGNRNSSSVFLPSRKDCMEVASAFMKFSKAIEWDMLNVEEEQIVPYIEKLTDGHLRAPLKHGVGILYKGMASNDERIVKRLYEYGAVSVLLISKDCSAFACKTDEVIILGTNLYDGAEHKYMPYTINELLEMVGLASGNDSMAGKVLILTSHNMKAYYKKFLIEPLPTESYLQYIIHDTLNNEIANSIIQSKQDCVDWFTYSYFYRRIHVNPSYYGVRDTSPHGISVFLSNLVETCLNDLVESSFIEIDDTEAEVTAEVNGGDDEATEIISTLSNGLIASHYGVSFFTIQSFVSSLSNTSTLKNMLYVLSTAVEFESVPLRKGDRALLVKLSKRLPLRFPEHTSSGSVSFKVFLLLQAYFSRLELPVDFQNDLKDILEKVVPLINVVVDILSANGYLNATTAMDLAQMLIQGVWDVDNPLRQIPHFNNKILEKCKEINVETVYDIMALEDEERDEILTLTDSQLAQVAAFVNNYPNVELTYSLNNSDSLISGVKQKITIQLTRDVEPENLQVTSEKYPFDKLESWWLVLGEVSKKELYAIKKVTLNKETQQYELEFDTPTSGKHNLTIWCVCDSYLDADKELSFEINVK

In one assay the parent is B1. As to the kind of experiment: Y2H interaction assay; growth on -LWH medium with 3-AT; parent: 50 nM.
In the case of chain 1 R456K, chain 1 G691R, the screen value amounted to 0 mM.

Consider chain 1 T507A, for which the screen value amounted to 50 mM.

On to chain 1 R686I, for which the screen value came out at 0 mM.

Turning to chain 1 R686Q, the screen value is 50 mM.

Regarding chain 1 Q685H, the screen value was determined as 50 mM.

Take chain 1 K379R: the screen value came out at 50 mM.

Turning to chain 1 L335F, the screen value amounted to 50 mM.

Turning to chain 1 D473E, the screen value was determined as 50 mM.

Regarding chain 1 H476D, the screen value amounted to 50 mM.

The next assay covers variants of B1. Described as above. This is another data set of the same source.
In the case of chain 2 R1899G, the screen value is 150 mM.

With chain 2 L1951P, the screen value stood at 0 mM.
